Reference: patent CN113480658A (SHENZHEN INNOVA NANOBODI CO LTD, dated 2021)

T1: 人附睾蛋白(HE4) (human, UniProt Q14508 31-124)
T1 construct: also called HE4抗原; 抗原
T1 sequence (looked up): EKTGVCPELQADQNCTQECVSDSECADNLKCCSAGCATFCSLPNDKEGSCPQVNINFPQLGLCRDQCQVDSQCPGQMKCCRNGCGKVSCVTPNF


Tests used:
人附睾蛋白(HE4) [1] = target: T1, 人附睾蛋白(HE4); test: additive ELISA on HE4, 1G8 alone
人附睾蛋白(HE4) [2] = target: T1, 人附睾蛋白(HE4); test: additive ELISA on HE4, 1D9 alone
人附睾蛋白(HE4) [3] = target: T1, 人附睾蛋白(HE4); test: SPR, Biacore T100, 1:1 binding fit

| ELISA reading (2nd抗体) (人附睾蛋白(HE4) [1]) | ELISA reading (1st抗体) (人附睾蛋白(HE4) [2]) | Kd (人附睾蛋白(HE4) [3]) [pM] | Binder |
| --- | --- | --- | --- |
| 0.481 | – | – | 纳米抗体1G8 (VHH) VHH: QVQLQESGGGLAQTGGSLRLSCVASGRTLDRYAIGWFRQAPGKEREFVAAISMSGTMTDYTDSVKGRFTISRDNAKNTVYLQMNSLKPDDTAVYCCAAGGRRGWGRALFAYDYWGQGTQVTVSS |
| – | 0.286 | 11.9 | 纳米抗体1D9 (抗HE4单价纳米抗体) (VHH, CDR1 26-33, CDR2 51-58, CDR3 97-113); Expressed in E. coli from pMES4 and purified) VHH: QVQLQESGGGLVQPGGSLRLSCAASGPRFSSYGMGWFRQAPGKEREFVAAISMSGTMTDYTDSVKGRFTISRDNAKNTVYLQMNSLKPDDTAVYCCAAGGRRGWGRALFAYDYWGQGTQVTVSS |
| – | – | 6.9 | 抗HE4二价纳米抗体1D9-LHC (VHH) VHH: QVQLQESGGGLVQPGGSLRLSCAASGPRFSSYGMGWFRQAPGKEREFVAAISMSGTMTDYTDSVKGRFTISRDNAKNTVYLQMNSLKPDDTAVYCCAAGGRRGWGRALFAYDYWGQGTQVTVSS |
